Source: patent US20240309070A1

Columns and labels:
[1] = target: human insulin (human) (UniProt P01308); test: polyreactivity ELISA, insulin coated, antibody 10 µg/mL, signal normalised to non-coated well
[2] = target: tEGFR (truncated EGFR) on vector-only transduced T cells (Homo sapiens (Human)) (UniProt P00533)
[3] = target: Western Reserve B5 on cells infected with VVddeGFP Western Reserve virus (Vaccinia virus, Western Reserve strain) (UniProt Q01227); test: flow cytometry, HT29 cells infected with WR VV (negative control)
[4] = target: Western Reserve B5 on cells infected with VVddeGFP Western Reserve virus (Vaccinia virus, Western Reserve strain) (UniProt Q01227); test: flow cytometry, SKOV3 cells infected with WR VV (negative control)
[5] = target: Copenhagen B5 on cells infected with VVCopenhagen (YFP) virus (Vaccinia virus, Copenhagen strain) (UniProt P21115); test: flow cytometry, HT29 cells infected with Copenhagen VV (negative control)

Infliximab (antibody) gave a Polyreactivity Insulin Score [1] of 2.9 score.

For “VV B5 monomer protein (Wyeth Vaccinia strain B5 with C-terminal AVI tag and HIS6 tag) (from UniProt O57254 18-279)”, the CAR+ % Parent [2] was 1.54%.

human IgG1k isotype control (antibody) gave an EC50 [3] of 0.02 nM, an EC50 [4] of 0.01 nM and an EC50 [5] of 0.01 nM.
